Assay: GFP-labeled filopodia count per OP6 cell
Conditions: glycan lost; control: WT mβ2AR::GFP

Substance: mouse β2-adrenergic-receptor (mβ2AR): No-NxS
- localisation_or_trafficking, other: GFP-labeled filopodia per cell: no change, 13.6 ±8.3 vs 31.8 ±16.2
